pKd: −log10 of the molar value.

The test addresses R0RBR parkin (residues 141–465, lacking Ubl domain and linker) (human) (UniProt O60260). Kind of test: ITC; 50 μM R0RBR, full-length parkin or phosphoparkin titrated with Ub, Ubl or their variants; 25°C; 50 mM HEPES, 50 mM NaCl, 250 μM TCEP pH 7.5 or 50 mM HEPES, 150 mM NaCl, 0.5 mM TCEP pH 8.0; single-site model.
The pKd is −log10 of the Kd, conventionally taken in molar units. Higher therefore signals a small Kd. As usually defined, the stoichiometry N is a count of units in the complex or per binding partner. In turn, “parkin Ubl domain S65D (from UniProt O60260 144-465) (domain or fragment)” gave a pKd of 5.30, a dH of -9.08 kcal/mol and a stoichiometry N of 1.03.
For the substance “parkin Ubl domain S65E (domain or fragment)”, the negative logarithm of the Kd (pKd) is 5.28, the dH was -11 kcal/mol and the stoichiometry N turned out to be 0.98.
Substance “phosphorylated parkin Ubl domain (domain or fragment)” gave a negative logarithm of the Kd (pKd) of 4.59, a dH of -3.82 kcal/mol and a stoichiometry N of 1.04.

The record behind these values is paper PMC4609183.
